Results on 30 sequences are retold here after the nanobody polyreactivity screen of Harvey et al. (2022).

This data set can be described thus: yeast display, Sf9 membrane polyspecificity reagent, FACS + sequencing; frameworks hold sequencing errors. In short, it runs like this: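 Using colony PCR, genes from sorted yeast display clones were amplified, then sequenced on MiSeq at 2 × 250 and filtered by CDR length. The clones had been stained with 10% biotinylated, detergent-solubilized Sf9 membrane reagent for 1 hour at 4 °C and sorted by FACS into low and high (top ~1%) gates on anti-HA and streptavidin fluorescence. Polyreactivity labels come from the gate of origin.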
“QVQLVESGGGLVQAGGSLRLSCAASGSIFTFYAMGWYRQAPGKERELVATINRIGGNTYYADSVKGRFTISRDNAKNTVYLQMNSLKPEDTAVYYCAAKPTYRGYGYGSWGQGTQVTVSS”: the “polyreactivity (PSR sort gate)” value is listed as “low polyreactivity”.

For “QVQLVESGGGLVQAGGSLRLSCAASGSIFTFYAMRWYRQAPGKERELVATINRIGGNRYYADSVKGRFTISRDNAKNTVYLQMNSLKPEDTAGYYCAAKPTYRGYGYGSWGQGTQVNVSS”, the “polyreactivity (PSR sort gate)” value is “low polyreactivity”.

In the case of “QVQLVESGGGLVQAGGSLRLSCAASGSIFTGNAMGWYRQAPGKERELVASITTSTDSTYYADSVKGRFTISRDNAKNTVYLQMNSLNPEDTAVYYCAAEYAVAWKYGLYFYFHFDYWGQGTQVTVSS”, the “polyreactivity (PSR sort gate)” value is “low polyreactivity”.

As to “QVQLVESGGGLVQAGGSLRLSCAASGSIFTGNTMGWYRQAPGKDRELVATISRRGGSTYYADSVKGRFTITRDNAKYSVYLQMNSLKPEDTAVYYCAARGPYRPPHGDAYYTYGYWGQGTQVTVSS”, the “polyreactivity (PSR sort gate)” value was “high polyreactivity”.

“QVQLVESGGGLVQAGGSLRLSCAASGSIFTGNTMGWYRQAPGKERELVAAISRRGGRTYYADSVKGRFTISRDNAKNTVYLQMNSLKPEDTAVYYCAALGRDSTPHGYWGQGTQVTVSS”: the “polyreactivity (PSR sort gate)” value is “high polyreactivity”.

For “QVQLVESGGGLVQAGGSLRLSCAASGSIFTGYAMGWYRQAPGKERELVAAIRTRGGSTYYADSVKGRFTISRDNAKNTVYLQMNSLKPEDTAVYYCAKRYYGWYGNFDYWGQGTQVTVSS”, the “polyreactivity (PSR sort gate)” value is on record as “high polyreactivity”.

Turning to “QVQLVESGGGLVQAGGSLRLSCAASGSIFTGYAMGWYRQAPGKERELVAGISWGGTSTYYADSVKGRFTISRDNAKYTVYLQMNSLKPEDTAVYYCSAVRGKYGYLTTPDWFDYWGQGTQVTVSS”, the “polyreactivity (PSR sort gate)” value is “high polyreactivity”.

Consider “QVQLVESGGGLVQAGGSLRLSCAASGSIFTGYSMGWYRQAPGKERELVAAISNSGTSTYYADSVKGRFTISRDNAKNTVYLQMNCLKPDDTAVYYCNRYHRLRVVPSRYVKYDYWGQGTQVTVSS”, for which the “polyreactivity (PSR sort gate)” value is “low polyreactivity”.

Take “QVQLVESGGGLVQAGGSLRLSCAASGSIFTHNAMGWYRQAPGKVREFVAAISSGGSTNYADSVKGRFTISRDNAKNTVYSQMNSLKPEDTAVYYCAKSIDGWYWRRRRYDYWGQGTQVTVSS”: the “polyreactivity (PSR sort gate)” value is “low polyreactivity”.

In the case of “QVQLVESGGGLVQAGGSLRLSCAASGSIFTKNSMGWYRQAPGKERELVAAISSGGSTYYADSVKGRFTISRDNAKNTVYLQMNSLKPEDTAVYYCARGASFFQKFYYWGQGTQVTVSS”, the “polyreactivity (PSR sort gate)” value is on record as “high polyreactivity”.

“QVQLVESGGGLVQAGGSLRLSCAASGSIFTLNAMGWYRQAPGKERELVAAIRWSGGSTYYADSVKGRFTISRDNAKNTVYLQMNSLKPEDTAVYYCAAKYPSDYYSRGFNYWGQGTQVTVSS”: the “polyreactivity (PSR sort gate)” value is given as “high polyreactivity”.

As for “QVQLVESGGGLVQAGGSLRLSCAASGSIFTLNAMGWYRQAPGKERELVAAISRSGGSTYYADSVKGRFTISRDNAKNTVYLQLNSLKPEDTAVYYCAVYVTRDSGWWLYDYWGQGTQVTVSS”, the “polyreactivity (PSR sort gate)” value was “high polyreactivity”.

In the case of “QVQLVESGGGLVQAGGSLRLSCAASGSIFTLYTMGWYRQAPGKERELVAGISWRGGRTYYADSVKGRFTISRDNAKNTVYLQMNSLKPEDTAVYYCAAKWTPHIYTLYSWGQGTQVTVSS”, the “polyreactivity (PSR sort gate)” value is reported as “high polyreactivity”.

With “QVQLVESGGGLVQAGGSLRLSCAASGSIFTNAMGWYRQAPGKERELVASIDANAGDTHYADSVKGRFTISRDNAKKTVYLQMNSLKPEDTAVYYCNADVTERLWTGEDDYWGQGTQVTVSS”, the “polyreactivity (PSR sort gate)” value was “low polyreactivity”.

In the case of “QVQLVESGGGLVQAGGSLRLSCAASGSIFTNNAMGRYRQAPGKERELVAGISFRGSSTYADSVKGRFTISRDNAKNTVYLQMNSLKPEDTAVYYCAAEWFDLEDDYWGQGTQVTVSS”, the “polyreactivity (PSR sort gate)” value was “low polyreactivity”.

As to “QVQLVESGGGLVQAGGSLRLSCAASGSIFTNNAMGWYRQAPGKETELVAAISWSGGSTYYADSVKGRFTISRDNAKNTVYLQMNSLKPEDTAVYYCAARRWGGPRYKYNYWGQGTQVTVSS”, the “polyreactivity (PSR sort gate)” value is “high polyreactivity”.

With “QVQLVESGGGLVQAGGSLRLSCAASGSIFTPNAMGWYRQAPGKERELVAAISSSSDRTYYADSVKGRFTISRDNAKNTVYLQMNSLKPEDTAVYYCAAYAQKRYYWGQVTQVTVSS”, the “polyreactivity (PSR sort gate)” value is “high polyreactivity”.

Turning to “QVQLVESGGGLVQAGGSLRLSCAASGSIFTPNGRGWYRPAPGKDSELVAAISQSGGSTFYADSVKGRFTMSRDNAKYTVYLQMNSLKPEDSAVYYCATEYYGPVYDLDYDYWGQGSQVTVSS”, the “polyreactivity (PSR sort gate)” value is on record as “low polyreactivity”.

Turning to “QVQLVESGGGLVQAGGSLRLSCAASGSIFTPNVMGWYRQAPGKERELVAAISQSGGSTFYADSVKGRFTISRDNAKNNVYLQMNSLKPEDTAVYYCAADPFYYFPSPFDYWGQGTQVTVSS”, the “polyreactivity (PSR sort gate)” value is “low polyreactivity”.

Turning to “QVQLVESGGGLVQAGGSLRLSCAASGSIFTPYAMGWYRQAPGKERELVAAISDSVGSTYYADSVKGRFTISRDNAKNTVYLQMNSLKPEDTAVYYCAAEYWVYDSYWFDYDYWGQGTQVTVSS”, the “polyreactivity (PSR sort gate)” value is reported as “high polyreactivity”.

Turning to “QVQLVESGGGLVQAGGSLRLSCAASGSIFTPYAMGWYRQAPGKERELVAAITSGGSTYADSVKGRFTISRDNAKNTVYLQMNSLKPEDTAVYYCAADRSYVYAGADMYYWGQGTQVTVSS”, the “polyreactivity (PSR sort gate)” value is “low polyreactivity”.

Turning to “QVQLVESGGGLVQAGGSLRLSCAASGSIFTPYAMVWYRQAPGKERELVATISWRGGSTYADSVKGRFTISRDNAKNTVYLQMNSLKPEDTAVYYCNKEYTFSLYDYWGQGSQVTVSS”, the “polyreactivity (PSR sort gate)” value is reported as “low polyreactivity”.

In the case of “QVQLVESGGGLVQAGGSLRLSCAASGSIFTRNALGWYRQAPGKETEFVAAISSSGVSTYYADSVKGRFTISRDNAKNTVYLQMNSLKPEDTAVYDCAARWGTKSGRFEYWGQGTQVTVSW”, the “polyreactivity (PSR sort gate)” value was “high polyreactivity”.

Turning to “QVQLVESGGGLVQAGGSLRLSCAASGSIFTRNAMGWYITAPGKEREFVAAISSSGVSTYYADSVKGRLTISRDNAKNTVYLQMNSLKPEDTAVYYCAARWGTKSGRYDYWGQGTQVTVSS”, the “polyreactivity (PSR sort gate)” value was “high polyreactivity”.

As to “QVQLVESGGGLVQAGGSLRLSCAASGSIFTRNAMGWYRQAPGKERELVAAISWRGGITNYADSVKGRFTISRDNAKNTVYLQMNSLKPEDTAVYYCNKIRTRGGYGYWGQGTQVTVSS”, the “polyreactivity (PSR sort gate)” value is listed as “high polyreactivity”.

For “QVQLVESGGGLVQAGGSLRLSCAASGSIFTRNTMGWYRQAPGKERELVAAISTSGGDTYYADSVKGRFTISRDNAKNTVYLQMNSLKPEDTAVYFCAVVLVGVYFGYDYWGQGTQVTVSS”, the “polyreactivity (PSR sort gate)” value is reported as “high polyreactivity”.

In the case of “QVQLVESGGGLVQAGGSLRLSCAASGSIFTRYAMGWYRQAPGKERELVADIRTRGGGTYYADSVKGRFTISRDTAKNTVYLQMNSLKPEDTAVYYCAKLWYHVYGSSPYGYWGQGTQVTVSS”, the “polyreactivity (PSR sort gate)” value is “high polyreactivity”.

As to “QVQLVESGGGLVQAGGSLRLSCAASGSIFTRYAMGWYRQEPGKERELVAAITTRGSSTYYADSVKGRFTISRDYAKNTVYLQMNSLKPEDTAVYYCATVVRLYRGRYRYDYWGQGTQVTVSS”, the “polyreactivity (PSR sort gate)” value is “high polyreactivity”.

Regarding “QVQLVESGGGLVQAGGSLRLSCAASGSIFTSYAMGWYRHAPGKERELVAAITSTGGSTYYADSVKGRFTISRDNAKNTVYLQMNSLKPEDTAVYYCNADGGTPYDYWGQGTQVTVSS”, the “polyreactivity (PSR sort gate)” value is recorded as “low polyreactivity”.

For the sequence “QVQLVESGGGLVQAGGSLRLSCAASGSIFTSYAMGWYRQAPGKERELVAGISWSVGGITYYADSVKGRFTISRDNAKNTVYLQMNSLKPEDTAVYYCAADPEGGLGTIPEDYWGQGTQVTVSS”, the “polyreactivity (PSR sort gate)” value is “low polyreactivity”.
